Experiments:
Test in all cases: Luminex, myc-captured LEPR protein on beads, Ab 0.5 µg/mL
[1] = target: T1, recombinant human LEPR extracellular domain expressed with a C-terminal myc-myc-hexahistidine tag (human, UniProt P48357 22-839)
T1 construct: Monomeric construct; also called hLEPR.MMH; hLEPR-MMH
Method: (§1) Aliquots of microspheres with immobilized anti-myc monoclonal antibodies, prepared as described above, were added individually to 1 mL of the each of these protein supernatants. The microspheres were gently mixed, incubated for two hours at 25° C., washed twice with 1 mL of DBPS, centrifuged to remove the supernatant and finally resuspended in 1 mL of DPBS buffer. Forty eight μL of anti-myc IgG coupled microspheres from individual reactions with full length human LEPR and with each of the human LEPR domain proteins were withdrawn and mixed together in 3.6 mL of PBS+20 mg/mL BSA+0.05% sodium azide (blocking buffer).
(§2) From this mixed pool, 75 μL of microspheres were plated per well on a 96 well filter plate (Millipore, Cat. No: MSBVN1250) and mixed with 25 μL of individual anti-human LEPR monoclonal antibodies (0.5 or 5 μg/mL), incubated for two hours at 25° C. and then washed twice with 200 μL of DPBS with 0.05% Tween 20 (washing buffer). […] After 30 minutes, the samples were washed twice with 200 μL of washing buffer and resuspended in 150 μL of wash buffer. The Median Fluorescence intensity (MFI) of the microspheres was measured in a Luminex Analyzer.

human LEPR CRH1 (D1)-MMH = target: T2, human LEPR CRH1 (D1)-MMH (human, UniProt P48357 22-229, limits assumed)
T2 construct: domain: CRH1 (D1); Transiently expressed, captured from supernatant on anti-myc beads
T2 sequence (looked up): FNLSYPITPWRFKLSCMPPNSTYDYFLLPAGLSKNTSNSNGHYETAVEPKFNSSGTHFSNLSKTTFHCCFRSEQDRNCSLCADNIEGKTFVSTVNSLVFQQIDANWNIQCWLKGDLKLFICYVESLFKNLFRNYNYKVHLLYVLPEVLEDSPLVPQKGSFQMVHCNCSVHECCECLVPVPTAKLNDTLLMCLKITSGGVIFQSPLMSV
Method: as §1, §2

[2] = target: T3, human LEPR CRH1 (D1,D2)-MMH (human, UniProt P48357 22-339, limits assumed)
T3 construct: domain: CRH1 (D1,D2); Transiently expressed, captured from supernatant on anti-myc beads
T3 sequence (looked up): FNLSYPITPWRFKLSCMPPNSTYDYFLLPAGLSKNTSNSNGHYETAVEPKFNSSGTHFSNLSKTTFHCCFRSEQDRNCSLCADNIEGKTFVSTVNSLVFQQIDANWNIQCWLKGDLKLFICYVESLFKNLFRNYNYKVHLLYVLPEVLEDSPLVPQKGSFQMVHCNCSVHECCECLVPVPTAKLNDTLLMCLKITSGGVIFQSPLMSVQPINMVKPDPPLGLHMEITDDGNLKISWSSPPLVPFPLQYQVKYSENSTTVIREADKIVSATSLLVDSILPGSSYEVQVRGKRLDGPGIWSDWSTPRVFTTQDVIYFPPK
Method: as §1, §2

[3] = target: T4, human LEPR CRH1 (D1,D2,D3)-MMH (human, UniProt P48357 22-427, limits assumed)
T4 construct: domain: CRH1-Ig (D1,D2,D3); Transiently expressed, captured from supernatant on anti-myc beads; also called CRH1-Ig (D1, D2, D3)
T4 sequence (looked up): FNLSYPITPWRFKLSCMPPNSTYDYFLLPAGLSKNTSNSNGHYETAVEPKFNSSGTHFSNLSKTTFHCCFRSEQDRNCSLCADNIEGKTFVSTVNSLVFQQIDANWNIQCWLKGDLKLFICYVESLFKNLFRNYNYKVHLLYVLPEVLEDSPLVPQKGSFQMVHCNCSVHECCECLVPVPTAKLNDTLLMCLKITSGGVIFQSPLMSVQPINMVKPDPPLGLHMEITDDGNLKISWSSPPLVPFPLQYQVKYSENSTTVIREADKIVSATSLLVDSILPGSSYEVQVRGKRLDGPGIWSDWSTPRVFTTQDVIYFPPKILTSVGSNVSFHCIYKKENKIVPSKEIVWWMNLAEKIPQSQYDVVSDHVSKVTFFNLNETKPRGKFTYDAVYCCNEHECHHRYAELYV
Method: as §1, §2

[4] = target: T5, human LEPR CRH1-Ig (D2,D3)-MMH (human, UniProt P48357 230-427, limits assumed)
T5 construct: domain: CRH1-Ig (D2,D3); Transiently expressed, captured from supernatant on anti-myc beads
T5 sequence (looked up): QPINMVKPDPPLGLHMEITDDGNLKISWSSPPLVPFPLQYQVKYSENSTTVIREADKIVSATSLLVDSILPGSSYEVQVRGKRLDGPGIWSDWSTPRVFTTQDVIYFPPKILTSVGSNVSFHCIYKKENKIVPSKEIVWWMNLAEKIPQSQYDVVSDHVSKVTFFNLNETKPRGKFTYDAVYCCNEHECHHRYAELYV
Method: as §1, §2

human LEPR Ig (D3)-MMH = target: T6, human LEPR Ig (D3)-MMH (human, UniProt P48357 340-427, limits assumed)
T6 construct: domain: Ig (D3); Transiently expressed, captured from supernatant on anti-myc beads
T6 sequence (looked up): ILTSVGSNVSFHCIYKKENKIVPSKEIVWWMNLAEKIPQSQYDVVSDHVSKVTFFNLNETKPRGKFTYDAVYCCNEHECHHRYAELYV
Method: as §1, §2

human LEPR FNIII-MMH = target: T7, human LEPR FNIII-MMH (human, UniProt P48357 636-839, limits assumed)
T7 construct: domain: FNIII; Transiently expressed, captured from supernatant on anti-myc beads
T7 sequence (looked up): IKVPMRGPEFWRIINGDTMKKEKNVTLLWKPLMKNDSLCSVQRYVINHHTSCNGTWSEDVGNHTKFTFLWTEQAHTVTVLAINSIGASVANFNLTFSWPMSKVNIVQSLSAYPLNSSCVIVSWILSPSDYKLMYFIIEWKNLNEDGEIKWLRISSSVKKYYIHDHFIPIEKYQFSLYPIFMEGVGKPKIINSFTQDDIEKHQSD
Method: as §1, §2

B1: H4H18462P2 (antibody, human IgG4, V domains shown)
VH: EVQLVESGGDLVQPGRSLRLSCAASGFTFSSFAMSWVRQAPGRGLEWVSSLSDSGDNTYYADSVKGRFTISRDNSKNTLYLQMNNLRAEDTAVYYCAKDLFSGWLFHGFDVWGQGTMVTVSS
VL: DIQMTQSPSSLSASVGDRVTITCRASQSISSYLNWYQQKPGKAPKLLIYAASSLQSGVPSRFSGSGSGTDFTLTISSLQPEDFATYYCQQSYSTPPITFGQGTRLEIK
notes: H4H prefix: human IgG4 Fc
With B1 the “Luminex MFI” value [1] was 3610 MFI, the “Luminex MFI” value (human LEPR CRH1 (D1)-MMH) was 615 MFI and the “Luminex MFI” value [2] was 665 MFI. The “Luminex MFI” value [3] was 461 MFI, the “Luminex MFI” value [4] was 25 MFI and the “Luminex MFI” value (human LEPR Ig (D3)-MMH) was 10 MFI. For the same binder, the “Luminex MFI” value (human LEPR FNIII-MMH) was 229 MFI.
